# Results published in patent publication US11565003B2, “Mechanical opening of lipid bilayers by molecular nanomachines” (William Marsh Rice University, priority 2016, dated 2023).
# Starred links: 1 amine or outer side, 2 acyl side, 3 side chain; linkers in the order of their positions; H or OH if unused. Positions of bridges follow the written chain, without caps; N, C: chain ends. Residues, ends and D or L forms follow the SMILES beside them. Chains are numbered I, II in the order given. X2 = C[C@@H]1Cc2ccc3ccccc3c2C1=C1c2cc(C#CCCn3cc(C(=O)[*:1])nn3)ccc2Sc2ccc(C#CCCn3cc(C(=O)[*:2])nn3)cc21
# Tested on: PC-3 cells
# Assay: 24 hours incubation without UV: proliferation and apoptosis (Annexin V, Image Cytometry)
# Assay type: cell-based, human
# Experimental: When PC-3 cells are loaded at 0.5 or 1.0 μM with 9 or 10, washed three times (Method B) or unwashed (Method A) after 24 hours of incubation, the cells visually appear without major signs of toxicity. However, the cells which had been incubated with 9 or 10 over 24 hours were not dividing as prolifically. The cultures appear to be populated ˜25% less in the presence of 9 and 20% of the cells in 10 compared to control untreated cells (FIGS. 12A-E).
# In order to further investigate this point, these cells were collected via gentle centrifugation and re-suspended in fresh PBS and analyzed by Image Cytometry. Using Annexin V, these cells were all confirmed to show signs of apoptosis at 93±5%. This is in contrast to the remaining coverslip surface-bound cells that appear healthy.
# These latter types of non-apoptotic cells show identical percentage of necrosis acceleration upon subsequent UV-activation of the cell-surface bound nanomachines compared to their shorter incubation time analogues. Thus, it appears that, upon 24 hour incubation, a noticeable amount of cells have nanomachines 9 and 10 either bound to vital cell membrane channels or transport proteins or they are internalized, subsequently shutting down some natural homeostatic mechanisms that leads to programmed cell death (FIGS. 12A-E). Furthermore, this is not the case with shorter incubation times regardless of whether Method A or B is used.
smiles,measurement,setting,value
CC(C)[C@H](NC(=O)[C@H](CCCNC(=N)N)NC(=O)[C@@H](NC(=O)[C@H](CC(N)=O)NC(=O)[C@H](CO)NC(=O)c1cn(CCC#Cc2ccc3c(c2)C(=C2c4c(ccc5ccccc45)C[C@H]2C)c2cc(C#CCCn4cc(C(=O)N[C@@H](CO)C(=O)N[C@@H](CC(N)=O)C(=O)N[C@H](C(=O)N[C@@H](CCCNC(=N)N)C(=O)N[C@H](C(=O)N[C@@H](C)C(=O)N5CCC[C@H]5C(=O)O)C(C)C)[C@@H](C)O)nn4)ccc2S3)nn1)[C@@H](C)O)C(=O)N[C@@H](C)C(=O)N1CCC[C@H]1C(=O)O [Compound 9] (I: SNTRVAP-OH / II: SNTRVAP-OH; linker I:N-II:N via X2),cultures populated less compared to control untreated cells,"PC-3, 0.5 or 1.0 μM, 24 hours of incubation, no UV",~25%
same,mobilized cells showing signs of apoptosis (Annexin V),"PC-3, 24 hours incubation, cells collected from culture media",93±5%
